Results published in doi:10.1101/2020.06.24.169508.

Molecular target: Vibrio campbellii chitoporin VhChiP, wild type (Vibrio campbellii (formerly Vibrio harveyi) BAA-1116)
Assay: SEC

For “Vibrio campbellii chitoporin VhChiP, wild type (natural protein)”, which stoichiometry N is on record?
The stoichiometry N was 3.
